Like-named read-outs stand apart in the source and are kept apart here. Where a SMILES comes first, the peptide text is derived from it. Bridges are numbered along the chain shown (N, C = ends). Where no end group is shown, it is not given here. The star is where a group is joined. DOTA = O=C(O)CN1CCN(CC(=O)O)CCN(CC(=O)*)CCN(CC(=O)O)CC1
Legend:
[1] = tested on: integrin receptors expressed on U87MG glioblastoma cells; experiment: Competition binding with 125I-echistatin to U87MG cells; parameters: species or system human; settings: competition with 0.06 nM 125I-echistatin, 2×10^5 U87MG cells, IBB, room temperature, 3 h, gamma counting; average ± SD of experiments on three separate days
Protocol: Competition binding assays were performed as previously described, [60] to measure the relative binding affinities of engineered knottin peptides and echistatin. Briefly, 2×10^5 U87MG or K562 cells were incubated with 0.06 nM ^125I-labeled echistatin and varying concentrations of peptides in IBB at room temperature for 3 h. The cell-bound radioactivity remaining after washing was determined by gamma-counting. Half-maximal inhibitory concentration (IC50) values were determined by non-linear regression analysis using KaleidaGraph software (Synergy Software), and are presented as the average of experiments performed on three separate days.

[2] = tested on: U87MG tumor xenografts; experiment: MicroPET imaging in U87MG xenograft mice; format: in vivo, mouse
Protocol: (§1) Animal procedures were carried out according to a protocol approved by Stanford University Administrative Panels on Laboratory Animal Care (APLAC Protocol 11580). U87MG glioblastoma cells were maintained at 37°C/5% CO2 in Dulbecco's Modified Eagle Medium, 10% heat-inactivated fetal bovine serum, and penicillin-streptomycin (all from Invitrogen). Female athymic nude mice (nu/nu), obtained at 4–6 weeks of age (Charles River Laboratories, Inc., Wilmington, MA), were injected subcutaneously in the right or left shoulder with ∼10^7 U87MG cells suspended in 100 µL of PBS. Mice were used for in vivo imaging studies when their tumors reached approximately 10 millimeters in diameter.
U87MG tumor-bearing mice (n = 3 or more for each probe) were injected with ∼100 µCi (∼0.5 nmol) of probe via the tail vein and imaged with a microPET R4 rodent model scanner (Siemens Medical, Knoxville, TN) using 5 min static scans. Images were reconstructed by a two-dimensional ordered expectation maximum subset algorithm and calibrated as previously described. ROIs were drawn over the tumor on decay-corrected whole body images using ASIPro VM software (Siemens Medical). ROIs were converted to counts/g/min, and %ID/g values were determined assuming a tissue density of 1 g/mL. No attenuation correction was performed. For the blocking experiments, mice were co-injected with 330 µg (∼0.5 µmol) of unlabeled c(RGDyK), a pentapeptide that binds to αvβ3 and αvβ5 integrins, [62] at a similar receptor binding site as the engineered knottin peptides.

[3] = In vivo metabolic stability in U87MG xenograft mice (radio-HPLC); parameters: species or system mouse
Protocol: (§2) Aliquots containing up to 400 µCi of ^64Cu-DOTA-knottin 3-4A were incubated in 50% mouse serum for up to 24 h. At various time points, samples were mixed with an equal volume of 99.9% water/0.1% TFA, further acidified with ∼1% (v/v) TFA, and centrifuged to remove precipitants. Soluble fractions were filtered with a 0.2 µm microcentrifuge filter (Corning Costar Spin-X filter) and analyzed by reversed-phase radio-HPLC using a Vydac C18 column. For metabolic stability analysis, anesthetized nude mice bearing U87MG tumor xenografts were injected with 200–400 µCi of ^64Cu-DOTA-knottin 3-4A via the tail vein, and were euthanized at 1 h post injection. Tumor, kidney, and liver tissues were homogenized with a mortar/pestle in 1 ml DMF. The lysates were acidified, centrifuged, and filtered using a 0.2 µm Costar Spin-X microcentrifuge filter to isolate soluble metabolites. Filtrates were injected onto a Vydac C18 column and analyzed by reversed-phase HPLC. Fractions were collected every 1 min and analyzed by gamma counting to determine the counts per minute (cpm). Urine samples were collected 1 h post injection and were also analyzed by radio-HPLC. The intact radiotracer elutes at approximately 15 min, and the major hydrophilic metabolites and free copper elute with the column dead volume.

[4] = tested on: MDA-MB-435 melanoma xenograft; experiment: Tumor uptake in MDA-MB-435 melanoma xenograft model; format: in vivo; settings: lower αvβ3 integrin levels, data not shown
[5] = Serum stability in mouse serum (radio-HPLC); format: in vitro ADME; settings: 50% mouse serum, 37°C, reversed-phase radio-HPLC (Vydac C18), area under the entire peak
Protocol: as §2

[6] = tested on: U87MG tumor xenografts; experiment: Biodistribution in U87MG xenograft mice (gamma counting); format: in vivo, mouse
Protocol: as §1
(§3) Anesthetized nude mice bearing U87MG tumor xenografts were injected with ∼50–100 µCi (∼0.25–0.5 nmol) of ^64Cu-DOTA-knottin 3-4A via the tail vein, and were euthanized at 1, 4, and 24 h post injection. Blood, bone, brain, heart, kidney, liver, lung, muscle, pancreas, skin, spleen, and tumor tissue were removed and weighed, and their radioactivity levels (counts per minute) were measured by gamma counting. The radioactivity uptake in the tumor and normal tissue was reported as the percent injected dose per gram (%ID/g) of tissue and represent the mean and standard deviation of experiments performed on three mice. For each mouse, the activity of tissue samples was calibrated against a pre-measured aliquot of the radiotracer and normalized to the whole bodyweight and to the residual radioactivity present in the tail. To test integrin-targeting specificity, U87MG tumor-bearing mice (n = 3) were co-injected with ^64Cu-DOTA-knottin 3-4A and 330 µg (∼0.5 µmol) of unlabeled c(RGDyK), and biodistribution of the radiolabeled peptide was determined 1 h after injection.

[7] = as above; format: in vivo, mouse; settings: female, athymic nude (nu/nu), mouse, iv, total radioactivity; for tissue to tissue ratio at 4 h: U87MG xenograft mice
Protocol: as §1, §3

[8] = tested on: integrin receptors expressed on U87MG glioblastoma cells; settings: read-out: IC50, competition binding of 125I-echistatin to U87MG cells; cited from earlier work
Protocol: The engineered knottin peptides were tested for their ability to compete with ^125I-echistatin for binding to integrin receptors expressed on U87MG glioblastoma cells, which express ∼10^5 αvβ3 integrin receptors per cell. Echistatin, a polypeptide found in snake venom, binds to multiple integrin receptors with high affinity, [27] and was used as a positive control. […] Both engineered loops were capable of binding to integrins with high affinity, as confirmed by measurements performed with knottins containing scrambled RDG control loops. […] In one example, c(RGDyK) dimers and higher order oligomers have been created by chemical conjugation through addition of a glutamate branching residue.

[9] = U87MG xenograft mice, summary of imaging and biodistribution

CSCC[C@@H]1NC(=O)[C@H](CC(=O)O)NC(=O)CNC(=O)[C@H](CCCNC(=N)N)NC(=O)[C@H](C)NC(=O)[C@H](CCC(=O)O)NC(=O)[C@H](CCCNC(=N)N)NC(=O)[C@@H]2CSSC[C@@H]3NC(=O)[C@H](CO)NC(=O)[C@H]([C@@H](C)O)NC(=O)[C@@H]4CCCN4C(=O)[C@H](C)NC(=O)[C@H](Cc4c[nH]c5ccccc45)NC(=O)[C@H](CC(=O)O)NC(=O)CNC(=O)[C@H](CCCNC(=N)N)NC(=O)CNC(=O)[C@H](CCC(N)=O)NC(=O)[C@@H]4CCCN4C(=O)[C@@H](NC(=O)CNC(=O)CN4CCN(CC(=O)O)CCN(CC(=O)O)CCN(CC(=O)O)CC4)CSSC[C@H](NC(=O)CNC(=O)[C@H](C)NC(=O)[C@H](CC(C)C)NC(=O)[C@H](CSSC[C@@H](C(=O)NCC(N)=O)NC(=O)[C@H]([C@@H](C)O)NC(=O)[C@H](CCCNC(=N)N)NC(=O)[C@@H]4CCCN4C1=O)NC(=O)[C@H](CC(=O)O)NC(=O)[C@H](CO)NC(=O)[C@H](CC(=O)O)NC(=O)[C@H](CCC(N)=O)NC(=O)[C@H](CO)NC3=O)C(=O)N[C@@H](C(C)C)C(=O)N2 [DOTA-3-4A] ({DOTA}-GCPQGRGDWAPTSCSQDSDCLAGCVCREARGDMPRTCG-NH2; disulfide 2-24, 14-26, 20-37)
IC50 [1]: 8 ± 1 nM

CSCC[C@@H]1NC(=O)[C@H](CC(=O)O)NC(=O)CNC(=O)[C@H](CCCNC(=N)N)NC(=O)[C@H](C)NC(=O)[C@H](CCC(=O)O)NC(=O)[C@H](CCCNC(=N)N)NC(=O)[C@@H]2CSSC[C@@H]3NC(=O)[C@H](CO)NC(=O)[C@H]([C@@H](C)O)NC(=O)[C@@H]4CCCN4C(=O)[C@H](C)NC(=O)[C@H](Cc4c[nH]c5ccccc45)NC(=O)[C@H](CC(=O)O)NC(=O)CNC(=O)[C@H](CCCNC(=N)N)NC(=O)CNC(=O)[C@H](CCC(N)=O)NC(=O)[C@@H]4CCCN4C(=O)[C@@H](NC(=O)CNC(=O)CN4CCN(CC(=O)O)CCN(CC(=O)O)CCN(CC(=O)O)CC4)CSSC[C@H](NC(=O)CNC(=O)[C@H](C)NC(=O)[C@H](CC(C)C)NC(=O)[C@H](CSSC[C@@H](C(=O)NCC(N)=O)NC(=O)[C@H]([C@@H](C)O)NC(=O)[C@H](CCCNC(=N)N)NC(=O)[C@@H]4CCCN4C1=O)NC(=O)[C@H](CC(=O)O)NC(=O)[C@H](CO)NC(=O)[C@H](CC(=O)O)NC(=O)[C@H](CCC(N)=O)NC(=O)[C@H](CO)NC3=O)C(=O)N[C@@H](C(C)C)C(=O)N2 [^64Cu-DOTA-knottin 3-4A, metal not drawn] ({DOTA}-GCPQGRGDWAPTSCSQDSDCLAGCVCREARGDMPRTCG-NH2; disulfide 2-24, 14-26, 20-37)
kidney uptake, microPET, 1 h post injection ([2]; U87MG xenograft mice): 10-12 %ID/g
kidney uptake, microPET, 24 h post injection ([2]; U87MG xenograft mice): 3–4 %ID/g
liver uptake, microPET, throughout the imaging study ([2]; U87MG xenograft mice, 1-24 h): ~2 %ID/g
kidney uptake, 1−4 h post-injection (summary in discussion) [2, 9]: 8–12 %ID/g
kidney uptake, 24 h (summary in discussion) [2, 9]: 2–4 %ID/g
liver uptake (summary in discussion) [2, 9]: 1–2 %ID/g
tumor uptake, microPET, 1 h post injection ([2]; U87MG xenograft nude mice, tail vein ∼100 µCi, n = 3, mean ± SD): 3.51±0.83 %ID/g
tumor uptake, microPET, 24 h post injection ([2]; U87MG xenograft nude mice, tail vein, n = 3, mean ± SD): 1.97±0.24 %ID/g
tumor uptake, microPET, 1 h post injection, blocked ([2]; co-injection of 1000-fold molar excess of unlabeled c(RGDyK) (330 µg), p<0.05): 0.53± 0.03 %ID/g
intact radiotracer recoverable from liver, 1 h post injection ([3]; U87MG xenograft mice, tail vein 200–400 µCi, liver homogenate in DMF, reversed-phase HPLC and gamma counting): < 40%
intact radiotracer recoverable from tumor, 1 h post injection ([3]; U87MG xenograft mice, tail vein 200–400 µCi, tumor homogenate in DMF, reversed-phase HPLC and gamma counting): < 40%
metabolic stability, kidneys, 1 h post injection ([3]; kidney homogenate, radio-HPLC, result in words): a hydrophilic metabolite (or free copper) is responsible for the majority of the radioactive signal
metabolic stability, urine, 1 h post injection ([3]; urine samples, radio-HPLC, result in words): intact knottin radiotracer is excreted through the bladder
tumor uptake, 1 h post injection [4]: 0.82±0.05 %ID/g
remaining at 4 h ([5]; 4 h, read-out: intact probe remaining in serum, 4 h): 55%
intact probe remaining in serum, 24 h ([5]; 24 h): ~30%
remaining at 24 h ([5]; 24 h, read-out: intact probe remaining in serum, 24 h): 30%
muscle radioactivity, biodistribution ([6]; U87MG xenograft mice): < 0.4 %ID/g
heart radioactivity, biodistribution, throughout the study ([6]; U87MG xenograft mice, 1-24 h): ~0.3 %ID/g
liver radioactivity, biodistribution, 1 h post injection ([6]; U87MG xenograft mice, n = 3): ~1 %ID/g
liver radioactivity, biodistribution, 24 h post injection ([6]; U87MG xenograft mice, n = 3): ~2 %ID/g
lung radioactivity, biodistribution, 1 h post injection ([6]; U87MG xenograft mice, n = 3): ~1 %ID/g
lung radioactivity, biodistribution, 24 h post injection ([6]; U87MG xenograft mice, n = 3): ~0.6 %ID/g
kidney radioactivity, biodistribution, 24 h post injection ([6]; U87MG xenograft mice, n = 3, mean ± SD): 2.67±0.22 %ID/g
tumor uptake, biodistribution, 24 h post injection ([6]; U87MG xenograft nude mice, gamma counting, n = 3, mean ± SD): 2.56±0.40 %ID/g
tumor uptake, biodistribution, 1 h post injection ([6]; U87MG xenograft nude mice, tail vein ∼50–100 µCi, gamma counting, n = 3, mean ± SD): 3.92±0.70 %ID/g
tumor uptake, biodistribution, 1 h post injection, blocked ([6]; co-injection of 1000-fold molar excess of unlabeled c(RGDyK) (330 µg), n = 3, p<0.05): 0.66±0.17 %ID/g
tumor washout rate ([7]; calculated from 1 h and 24 h tumor radioactivity, read-out: radiotracer washout rate from tumor, biodistribution): 0.06 %ID/g
tissue to tissue ratio at 4 h ([7]; tumor / muscle, read-out: tumor-to-muscle (T/M) ratio, 4 h post injection): 31 ± 7
tissue to tissue ratio at 4 h ([7]; tumor / whole blood, read-out: tumor-to-blood (T/B) ratio, 4 h post injection): 27 ± 3

ECESGPCCRNCKFLKEGTICKRARGDDMDDYCNGKTCDCPRNPHKGPAT (disulfide 2-11, 7-32, 8-37, 20-39 (inferred)) [Echistatin, reference compound]
IC50 [1]: 4.9 ± 0.1 nM

c(RGDyK)
IC50 [8]: 203 ± 32 nM

From publication PMC3041754, “Functional Mutation of Multiple Solvent-Exposed Loops in the Ecballium elaterium Trypsin Inhibitor-II Cystine Knot Miniprotein” (PLoS ONE, 2011)
